Test results from patent US10500256B2, “Polymers for delivery of therapeutic proteins” (BOARD OF REGENTS, THE UNIVERSITY OF TEXAS SYSTEM, priority 2014, dated 2019).

Tests used:
Caco-2 monolayer [1] = details: cited from earlier work
[2] = Loading and release of salmon calcitonin, urokinase and Rituxan from 1:2 P(IA-co-NVP) microparticles; assay type: physicochemical; details: 3 mol % TEGDMA; for Loading Level: protein loading solution 200 μg/mL; for Percent Release, t = 24 h / Protein Released, t = 24 h: t=0-1 h pH 3, then pH 7.4
Text: In an additional experiment, the loading and release of urokinase was also compared to that of sCT and rituximab using P(IA-co-NVP) microparticles synthesized with a monomer ratio of 1:2 IA to NVP. This experiment utilized urokinase as another high pI protein (pI=8.66) with a molecular weight (54.0 kDa) between that of salmon calcitonin (3.4 kDa) and rituximab (144 kDa), allowing us to see the effects across a range of sizes, rather than just two endpoints. Urokinase is used clinically as a thrombolytic agent for myocardial infarction, pulmonary embolism, and deep vein thrombosis.
This difference arises from two results. First, the hydrogels used in this experiment were crosslinked using 3 mol % TEGDMA in the monomer feed. […] Further, this experiment utilized loading solutions of proteins at only 200 μg/mL, rather than at 400 μg/mL as was used in the preceding experiment. […] With lower loading levels comes both lower overall delivery and lower percent release, as the lower loading level means less protein to be released even at 100% efficiency and, since concentration difference is the driving force for diffusion, less entropic gain due to diffusive release which therefore shifts the equilibrium toward coulombic binding rather than diffusive release.

[3] = in vivo absorption of compounds with similar Caco-2 permeability; cited from earlier work
Caco-2 monolayer [4] = assay: Transport across Caco-2 monolayer (literature data); assay type: in vitro ADME, human; details: over the 3 h average residence time, assuming constant permeability
Text: Aside from limited delivery potential from the microparticle carriers, loss of bioavailability resulting from intestinal enzymatic degradation and low intestinal absorption should also be accounted for.

| Compound | Loading Level [2] [μg/mg hydrogel] | Percent Release, t = 24 h [2] [%] | Protein Released, t = 24 h [2] [μg/mg hydrogel] | further results |
| --- | --- | --- | --- | --- |
| 1-deamino-8-D-arginine-vasopressin | – | – | – | Apparent permeability in Caco-2 cultures (Caco-2 monolayer [1]; Caco-2): 1.3×10^−7 |
| Rituxan: large monoclonal antibody rituximab (144 kDa) | 24.1 ± 1.5 | 20.0 ± 3.6 | 4.8 ± 1.1 | Loading Level ([2]; listed as rituximab): 24.1 μg/mg hydrogel |
| COc1cccc2c1C(=O)c1c(O)c3c(c(O)c1C2=O)C[C@@](O)(C(=O)CO)C[C@@H]3O[C@H]1C[C@H](N)[C@H](O)[C@H](C)O1 [doxorubicin] | – | – | – | Absorption [3]: 5% |
| CC(C)C[C@H](NC(=O)[C@H](CCCCN)NC(=O)CNC(=O)[C@H](CC(C)C)NC(=O)[C@@H](NC(=O)[C@@H]1CSSC[C@H](N)C(=O)N[C@@H](CO)C(=O)N[C@@H](CC(N)=O)C(=O)N[C@@H](CC(C)C)C(=O)N[C@@H](CO)C(=O)N[C@@H]([C@@H](C)O)C(=O)N1)C(C)C)C(=O)N[C@@H](CO)C(=O)N[C@@H](CCC(N)=O)C(=O)N[C@@H](CCC(=O)O)C(=O)N[C@@H](CC(C)C)C(=O)N[C@@H](Cc1c[nH]cn1)C(=O)N[C@@H](CCCCN)C(=O)N[C@@H](CC(C)C)C(=O)N[C@@H](CCC(N)=O)C(=O)N[C@H](C(=O)N[C@@H](Cc1ccc(O)cc1)C(=O)N1CCC[C@H]1C(=O)N[C@@H](CCCNC(=N)N)C(=O)N[C@H](C(=O)N[C@@H](CC(N)=O)C(=O)N[C@H](C(=O)NCC(=O)N[C@@H](CO)C(=O)NCC(=O)N[C@H](C(=O)N1CCC[C@H]1C(N)=O)[C@@H](C)O)[C@@H](C)O)[C@@H](C)O)[C@@H](C)O [Salmon Calcitonin] | – | – | – | Fraction transported across a Caco-2 monolayer (Caco-2 monolayer [1]; in vitro, over 60 min, Youn et al. (2006)): 0.05%; Fraction expected to be transported across the intestinal epithelium (Caco-2 monolayer [4]): 0.15% |
| Urokinase | 19.0 ± 1.1 | 14.2 ± 3.2 | 2.7 ± 0.5 | Loading Level ([2]; listed as urokinase): 19.0 μg/mg hydrogel |
